Results reported in patent publication US20040001830A1.

Legend:
Assay in all cases: cell-based or functional assay
Lipidated TF (human) = Lipidated TF (human) (UniProt P13726)
[1] = biological target: Recombinant human soluble TF1-209 (human) (UniProt P13726)
[2] = biological target: Thromboplastin from human (TF source of the TF-dependent clotting assay) (human) (UniProt P13726)

IC50, inhibition of FXa generation (Assay 5; 10 pM lipidated TF, 100 pM FVIIa, 50 nM FX) (Lipidated TF (human)): 51 pM
IC50, inhibition of FVIIa/sTF amidolytic activity (Assay 4; 10 nM sTF, 10 nM FVIIa, substrate S2288) [1]: 7 nM
IC50, TF-dependent clotting assay (Assay 7) [2]: 0.0044 nM
Substance: FFR-rFVIIa: FVIIa blocked in the active site with D-Phe-L-Phe-L-Arg-chloromethyl ketone (from UniProt P08709 61-212) (enzyme)
